Measured values as given in publication PMC7210950, “Btk SH2-kinase interface is critical for allosteric kinase activation and its targeting inhibits B-cell neoplasms” (Nature Communications, 2020).
Square brackets hold non-standard residues; d marks the D form. Ends that are not written are not given here. pY = N[C@@H](Cc1ccc(OP(=O)(O)O)cc1)C(=O)O

What was measured:
Assay in all cases: fluorescence polarisation; Btk SH2 WT and mutants at several concentrations with 1 µM FITC-labeled peptide; Tris 40 mM pH 8, 150 mM NaCl, 1 mM DTT; 1:1 binding model
Conditions in all cases: both partners purified
[1] = molecular target: T1, Btk SH2 domain H364D (XLA mutation) (human, UniProt Q06187 271-383, H364D)
T1 construct: SH2 domain of human Btk with the XLA patient mutation H364D; Same limits as m1; source: E. coli Bl21(DE3), purified (Ni-NTA, TEV cleavage, SEC); not shown: His6, N-terminal, cleaved; GST, N-terminal, cleaved
T1 sequence (Q06187 271-383 H364D): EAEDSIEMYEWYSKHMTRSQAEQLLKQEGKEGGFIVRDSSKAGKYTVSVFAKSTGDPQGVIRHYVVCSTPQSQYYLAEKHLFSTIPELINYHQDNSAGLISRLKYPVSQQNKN

[2] = molecular target: T2, Btk SH2 domain S371P (XLA mutation) (human, UniProt Q06187 271-383, S371P)
T2 construct: SH2 domain of human Btk with the XLA patient mutation S371P; Same limits as m1; source: E. coli Bl21(DE3), purified (Ni-NTA, TEV cleavage, SEC); not shown: His6, N-terminal, cleaved; GST, N-terminal, cleaved
T2 sequence (Q06187 271-383 S371P): as the sequence (Q06187 271-383 H364D) above, with D94H, S101P counted along it

[3] = molecular target: T3, Btk SH2 domain K296E (XLA mutation) (human, UniProt Q06187 271-383, K296E)
T3 construct: SH2 domain of human Btk with the XLA patient mutation K296E; Same limits as m1; source: E. coli Bl21(DE3), purified (Ni-NTA, TEV cleavage, SEC); not shown: His6, N-terminal, cleaved; GST, N-terminal, cleaved
T3 sequence (Q06187 271-383 K296E): as the sequence (Q06187 271-383 H364D) above, with K26E, D94H counted along it

[4] = molecular target: T4, Btk SH2 domain K374N (XLA mutation) (human, UniProt Q06187 271-383, K374N)
T4 construct: SH2 domain of human Btk with the XLA patient mutation K374N; Same limits as m1; also called Btk SH2 K374N; source: E. coli Bl21(DE3), purified (Ni-NTA, TEV cleavage, SEC); not shown: His6, N-terminal, cleaved; GST, N-terminal, cleaved
T4 sequence (Q06187 271-383 K374N): as the sequence (Q06187 271-383 H364D) above, with D94H, K104N counted along it

[5] = molecular target: T5, Btk SH2 domain, wild-type (recombinant) (human, UniProt Q06187 271-383)
T5 construct: SH2 domain of human Bruton's tyrosine kinase (Btk); the construct is in PDB 6HTF; Construct limits are not in the text; also called Btk SH2 WT; human Btk SH2 domain; source: E. coli Bl21(DE3), purified (Ni-NTA, TEV cleavage, SEC); not shown: His6, N-terminal, cleaved; GST, N-terminal, cleaved
T5 sequence (Q06187 271-383): as the sequence (Q06187 271-383 H364D) above, with D94H counted along it

[6] = molecular target: T6, Btk SH2 domain R372G (XLA mutation) (human, UniProt Q06187 271-383, R372G)
T6 construct: SH2 domain of human Btk with the XLA patient mutation R372G; Same limits as m1; source: E. coli Bl21(DE3), purified (Ni-NTA, TEV cleavage, SEC); not shown: His6, N-terminal, cleaved; GST, N-terminal, cleaved
T6 sequence (Q06187 271-383 R372G): as the sequence (Q06187 271-383 H364D) above, with D94H, R102G counted along it

Measured: binding result

B1: FITC-labeled pY-peptide (ADNDpYIIPLPD) (peptide)
peptide: ADND[pY]IIPLPD
modifications: also: FITC label, end not given here
notes: also called fluorescently labeled pY-peptide
binds: all assays above
